Results published in US20150299263A1 (FACTOR THERAPEUTICS, published 2015).
Where no end group is shown, it is not given here.

Assays:
[1] = target: T1, Human receptor grade IGFBP-5 (insulin-like growth factor binding protein 5) (human, UniProt P24593 21-272); assay: VN-peptide array, ligand overlay, immunoblot/ECL, TotalLab spot intensity
T1 construct: Bought recombinant protein, overlaid in solution on the VN-peptide array
Experimental: (§1) Methanol or ethanol was used to enhance the rehydration of peptide spots that might be hydrophobic. The peptides spotted onto the membranes were activated by incubating in 3 mL of 70% ethanol for five mins. The membranes were subsequently washed three times, 10 minutes each, in 10 mL TBS (Tris Buffered Saline; 8 g NaCl, 0.2 g KCl and 6.1 g Tris Base into 1000 mL of milliQ water, pH 7) with gentle rocking. Membrane blocking was performed by incubating in 10 mL casein-based membrane blocking buffer (MBS; Sigma-Aldrich) overnight at 4° C. The following day, the membranes were washed twice, 10 minutes each, in 10 mL TBS-T (TBS+0.05% Tween-20; pH 7).
(§2) Ligands used to test binding to VN-peptides were IGFBP-3, IGFBP-5 and IGF-II. For ligand binding, four separate solutions of 1 μg/mL ligand in 10 mL MBS buffer were prepared and each membrane was incubated in one of the four ligand solutions overnight at 4° C., with gentle rocking. […] The following day, the membranes were washed three times, 10 minutes each, in 10 mL TBS-T.
(§3) The binding of the ligands to peptides within the membrane was detected using immunoblotting. The membranes were incubated overnight at 4° C. with 10 mL primary antibody solution (in MBS buffer) targeting the respective ligands. The antibodies used were anti-IGFBP-3 (1:10,000), anti-IGFBP-5 (1:10,000) and anti-IGF-II (1:5000) to detect IGFBP-3, IGFBP-5 and IGF-II respectively. The following day, the membranes were washed three times, 10 minutes each, in 10 mL TBS-T and incubated with 10 mL HRP-conjugated secondary IgG antibody diluted 1:15,000 in MBS buffer for 1 hour at room temperature. Following a further three washes of 10 minutes each, the peptide spots were visualized using ECL. The membranes were exposed onto x-ray films and developed using a film processor (AGFA CP 1000), or were imaged directly using the ChemiDoc™ XRS system (BioRad).

[2] = target: T2, Human receptor grade IGFBP-3 (insulin-like growth factor binding protein 3) (human, UniProt P17936 28-291); assay: as above
T2 construct: Bought recombinant protein, overlaid in solution on the VN-peptide array
Experimental: as §1, §2, §3

[3] = target: T3, Human receptor grade IGF-II (insulin-like growth factor II) (human, UniProt P01344 25-91); assay: as above
T3 construct: Bought recombinant protein, overlaid in solution on the VN-peptide array
Experimental: as §1, §2, §3

[4] = target: T3, Human receptor grade IGF-II …; assay: VN-peptide array, ligand overlay, immunoblot/ECL

T1 sequence (P24593 21-272 limits assumed): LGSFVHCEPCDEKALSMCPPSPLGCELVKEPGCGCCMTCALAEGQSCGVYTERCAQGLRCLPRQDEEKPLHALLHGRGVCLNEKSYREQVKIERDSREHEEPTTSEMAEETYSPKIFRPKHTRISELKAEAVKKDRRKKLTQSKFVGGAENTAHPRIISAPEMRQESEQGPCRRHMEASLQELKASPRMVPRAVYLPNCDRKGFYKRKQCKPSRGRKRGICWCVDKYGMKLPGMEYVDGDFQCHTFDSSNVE
T3 sequence (P01344 25-91 limits assumed): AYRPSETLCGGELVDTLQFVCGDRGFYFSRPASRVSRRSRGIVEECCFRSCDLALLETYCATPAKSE
T2 sequence (P17936 28-291 limits assumed): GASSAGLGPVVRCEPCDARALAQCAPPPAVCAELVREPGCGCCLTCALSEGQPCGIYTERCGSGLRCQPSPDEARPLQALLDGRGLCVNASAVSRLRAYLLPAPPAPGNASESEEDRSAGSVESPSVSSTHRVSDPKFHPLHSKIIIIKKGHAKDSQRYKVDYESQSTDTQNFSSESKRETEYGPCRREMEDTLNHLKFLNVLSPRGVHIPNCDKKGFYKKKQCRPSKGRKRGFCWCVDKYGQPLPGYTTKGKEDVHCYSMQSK

Intensity (against -ve control) [1]	Intensity (against -ve control) [2]	Intensity (against -ve control) [3]	binding result [4]	Binder
5 fold over negative controls	4 fold over negative controls	–	–	KPEGIDSRPETLHPGR (not fully specified (N-terminus); also: free end capped by acetylation, immobilised on cellulose membrane (SPOT synthesis)) [VN-peptide 2A (array grid C12)]
–	4.5 fold over negative controls	–	–	FAMMQRDSWEDIFELL (not fully specified (N-terminus); also: free end capped by acetylation, immobilised on cellulose membrane (SPOT synthesis)) [VN-peptide 5B (array grid G6)]
3 fold over negative controls	1 fold over negative controls	10 fold over negative controls	–	ALALPAHSYSGRERVY (not fully specified (N-terminus); also: free end capped by acetylation, immobilised on cellulose membrane (SPOT synthesis)) [VN-peptide 3B (array grid F6)]
–	–	12 fold over negative controls	–	SNLGANNYDDYRMDWL (not fully specified (N-terminus); also: free end capped by acetylation, immobilised on cellulose membrane (SPOT synthesis)) [VN-peptide 7C (array grid I9)]
5 fold over negative controls	1.5 fold over negative controls	1.5 fold over negative controls	–	TRQPQFISRDWHGVPG (not fully specified (N-terminus); also: free end capped by acetylation, immobilised on cellulose membrane (SPOT synthesis)) [VN-peptide 6C (array grid G14)]
–	4.5 fold over negative controls	–	–	MQRDSWEDIFELLFWG (not fully specified (N-terminus); also: free end capped by acetylation, immobilised on cellulose membrane (SPOT synthesis)) [VN-peptide 5C (array grid G7)]
7 fold over negative controls	2 fold over negative controls	–	–	GIDSRPETLHPGRPQP (not fully specified (N-terminus); also: free end capped by acetylation, immobilised on cellulose membrane (SPOT synthesis)) [VN-peptide 2B (array grid C13)]
–	–	17 fold over negative controls	–	LFSSEESNLGANNYDD (not fully specified (N-terminus); also: free end capped by acetylation, immobilised on cellulose membrane (SPOT synthesis)) [VN-peptide 7A (array grid I7)]
1.5 fold over negative controls	1 fold over negative controls	0 fold over negative controls	–	SAGTRQPQFISRDWHG (not fully specified (N-terminus); also: free end capped by acetylation, immobilised on cellulose membrane (SPOT synthesis)) [VN-peptide 6B (array grid G13)]
3 fold over negative controls	5 fold over negative controls	5 fold over negative controls	–	KYYRVNLRTRRVDTVD (not fully specified (N-terminus); also: free end capped by acetylation, immobilised on cellulose membrane (SPOT synthesis)) [VN-peptide 8A (array grid J4)]
–	–	18 fold over negative controls	–	SEESNLGANNYDDYRM (not fully specified (N-terminus); also: free end capped by acetylation, immobilised on cellulose membrane (SPOT synthesis)) [VN-peptide 7B (array grid I8)]
–	6 fold over negative controls	–	–	KGKQYWEYQFQHQPSQ (not fully specified (N-terminus); also: free end capped by acetylation, immobilised on cellulose membrane (SPOT synthesis)) [VN-peptide 4A (array grid F12)]
–	12 fold over negative controls	–	–	QYWEYQFQHQPSQEEC (not fully specified (N-terminus); also: free end capped by acetylation, immobilised on cellulose membrane (SPOT synthesis)) [VN-peptide 4B (array grid F13)]
7 fold over negative controls	7 fold over negative controls	17 fold over negative controls	–	RVNLRTRRVDTVDPPY (not fully specified (N-terminus); also: free end capped by acetylation, immobilised on cellulose membrane (SPOT synthesis)) [VN-peptide 8B (array grid J5)]
7 fold over negative controls	2 fold over negative controls	12 fold over negative controls	–	GRTSAGTRQPQFISRD (not fully specified (N-terminus); also: free end capped by acetylation, immobilised on cellulose membrane (SPOT synthesis)) [VN-peptide 6A (array grid G12)]
3 fold over negative controls	1 fold over negative controls	5 fold over negative controls	–	VDAALALPAHSYSGRE (not fully specified (N-terminus); also: free end capped by acetylation, immobilised on cellulose membrane (SPOT synthesis)) [VN-peptide 3A (array grid F5)]
–	–	–	binds	LFSSEESNLGANNYDDYRMDWL (Free synthetic peptide (Mimotopes) in the migration and growth assays; The array carried only its overlapping 16-mers 7A-7C; also called Peptide 7; motif-7 mimic) [VN peptide P7 (LFSSEESNLGANNYDDYRMDWL)]
–	2.5 fold over negative controls	–	–	DSWEDIFELLFWGRTS (not fully specified (N-terminus); also: free end capped by acetylation, immobilised on cellulose membrane (SPOT synthesis)) [VN-peptide 5D (array grid G8)]
9 fold over negative controls	10 fold over negative controls	13 fold over negative controls	–	Ac-LRTRRVDTVDPPYPRS (also: immobilised on cellulose membrane) [VN-peptide 8C (array grid J6)]
11 fold over negative controls	10 fold over negative controls	–	binds	CQCDELCSYYQSCCTD (not fully specified (N-terminus); cysteine pairing not given here; also: free end capped by acetylation, immobilised on cellulose membrane (SPOT synthesis)) [VN-peptide 1A (array grid A13)]
8 fold over negative controls	4 fold over negative controls	11 fold over negative controls	–	Ac-RRVDTVDPPYPRSIAQ (also: immobilised on cellulose membrane) [VN-peptide 8D (array grid J7)]
–	1.5 fold over negative controls	–	–	FEHFAMMQRDSWEDIF (not fully specified (N-terminus); also: free end capped by acetylation, immobilised on cellulose membrane (SPOT synthesis)) [VN-peptide 5A (array grid G5)]
